Laboratory results published in the supplement of paper PMC10126150.
± gives the standard deviation of the averaged measurements.

test system: ATP; test: switch fluorescence ratio, 500 uM ATP over buffer (Cy3 cluster intensity, sum of 5 cycles each) (fold (ratio)); higher = stronger signal-on switching upon ATP binding; sequences stand for … in TCGTCGGCAGCGTCAGATGTGTATAAGAGACAGTTTTTTTTTTTTTTTTTTTTTTTTT…TC; conditions: aptamer strand: ATP DNA aptamer (quencher-CACCTGGGGGAGTATTGCGGAGGAAGG + anchor), 100 nM annealed; ATP concentration: 500 uM
Outline: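 Per cluster, summed Cy3 intensity from the target cycles was divided by that from the buffer cycles to give the fluorescence ratio, then averaged per switch-domain sequence. Clusters outside 100-1000 RFU were excluded. The Cy3-labelled switching-strand clusters, on a modified Illumina MiSeq flow-cell, were annealed to 100 nM quencher-labelled ATP aptamer and imaged in selection buffer, then after 15 min with 500 uM ATP at 22 °C, for five cycles with NaOH stripping and re-annealing between them.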
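Note: ATP exposure 15 min at 22 °C before imaging.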

Sequence | switch fluorescence ratio
TCCTTCACGA | 2.067 ± 0.017
TTGAAAAAAA | 1.2 ± 0.27
AAGGTTTTAA | 0.9825 ± 0.0066
AAGTATTTAG | 0.994 ± 0.024
AATGCTTGGG | 1.0044 ± 8.7e-05
AGCTATGGGA | 1.04 ± 0.015
TGCTTCGGGA | 1.1288 ± 0.0008
ACTGACCCCC | 1.58 ± 0.14
TTTATGTATG | 1.02 ± 0.034
TGTATTTTTT | 1.05 ± 0.093
GCGCTAGTTT | 1 ± 0.016
TGGGTATGTT | 1.02 ± 0.014
TTTTGGGCAA | 1.31 ± 0.21
AGTGCGGAAG | 1.04 ± 0.066
GGAATAGCGG | 0.993 ± 0.029
TTGGGCCCTG | 1.06 ± 0.014
GTTGGGAGCG | 1 ± 0.033
GAAGAGAGGC | 0.96 ± 0.024
CACGATTTTT | 0.988 ± 0.022
AAAGATCGTT | 0.9799 ± 0.0055
AAGACGTAGG | 1.06 ± 0.034
TTTCTCAGTC | 1 ± 0.039
CGGGGGATGT | 0.999 ± 0.024
TATATAAATT | 0.985 ± 0.021
CGGCTTAGAT | 0.984 ± 0.028

Sequence | switch fluorescence ratio
AGTTGGAGGA | 0.991 ± 0.015
GGGCTAAAGG | 1.04 ± 0.03
CGGTTTGGTG | 1.01 ± 0.029
AGTAGATTAA | 0.986 ± 0.011
GATGTAACAC | 1.07 ± 0.013
GCGGGGGTGC | 1.03 ± 0.048
AAGGGGCGCT | 1.01 ± 0.039
GGGGTGAATG | 0.974 ± 0.04
TTTTCCTTCT | 1.09 ± 0.089
TTGCTTATGG | 1.01 ± 0.015
CATCTAAGGC | 1.07 ± 0.049
CAAGTGAATG | 1.01 ± 0.017
GAGAGTATTT | 0.995 ± 0.073
TCGGGGGTAA | 1.01 ± 0.033
ACGGCTGAGC | 1.04 ± 0.03
CTCGGCGTCC | 1.142 ± 0.0086
TAAGGGGAAG | 1.04 ± 0.015
ATGGCTGGGC | 1.005 ± 0.0042
TTTTCAATCT | 0.9933 ± 0.0073
TAGGTTTAAT | 0.992 ± 0.036
ATTGAATTTG | 0.9999 ± 0.0013
TCTTAGGTGG | 1.05 ± 0.016
AAGGACTGAA | 0.9994 ± 0.0078
TTTGACCGTT | 0.988 ± 0.035
AAAGTGGTGG | 1.02 ± 0.039

Sequence | switch fluorescence ratio
TCAGGGGACG | 1 ± 0.025
ACTAATGGGC | 1.03 ± 0.026
CAGGCTTTGC | 0.992 ± 0.076
GGGGTCAGCC | 1.06 ± 0.13
AAGGATAAAC | 1.01 ± 0.039
TTGAGATTTT | 0.996 ± 0.023
GAGGAGCTTG | 0.94 ± 0.096
TTTGAGAGTA | 0.96 ± 0.028
TCTCAAAAAT | 1.1 ± 0.025
TCTGTGATCT | 1.01 ± 0.021
GTTGTGCTTT | 0.984 ± 0.011
CGTGGAGGGT | 0.9966 ± 0.0042
TTTAATGTAT | 1.19 ± 0.3
TCGAAGTTTT | 0.9996 ± 0.0089
CATTGGTTTG | 1.01 ± 0.048
GACGCCGGTC | 1.25 ± 0.27
TAAAAATAGG | 1 ± 0.022
TTTTAAGCCC | 1.03 ± 0.046
TTTATTGTGG | 0.9934 ± 0.0071
TAAAGGCAAG | 1.02 ± 0.018
ATGGAGGTTA | 0.9695 ± 0.0085
TAGGGTTGGA | 1 ± 0.018
TACGTGTAGA | 1.02 ± 0.056
TTCCGAAAGA | 1.11 ± 0.066
TGAGTCGCGT | 1.01 ± 0.013

Sequence | switch fluorescence ratio
TGGGGAGCAT | 1.01 ± 0.044
GGTTGGATTA | 0.9787 ± 0.00083
AGTGACTTTT | 0.9961 ± 0.0089
TTATTAGATG | 0.997 ± 0.018
ATTTCCGTTT | 0.984 ± 0.013
ATGTAACGGG | 1.03 ± 0.021
ATTCTTTTTT | 0.997 ± 0.024
TTGGGCTTAT | 1.001 ± 0.0066
GGAGATATTT | 1 ± 0.011
ATAAGATTAC | 1.012 ± 0.0091
AGTTATCAGG | 1.06 ± 0.024
TCAGGGGGTG | 1.05 ± 0.11
TCATTATGAA | 0.987 ± 0.054
GTTGAGGGTT | 0.989 ± 0.049
TATCTCAGAA | 0.99 ± 0.014
TCATTCGGTG | 1.05 ± 0.041
ATGAGTAAAG | 0.999 ± 0.025
ATAGTAAAAC | 1.05 ± 0.02
GGCCGTTGGG | 0.965 ± 0.016
ATAAAAGCTT | 1.03 ± 0.014
GCAGCATGTG | 1.04 ± 0.026
GAGGTCTGTG | 0.965 ± 0.018
TTATAAGGG | 0.9843 ± 0.0022
TGCATCAATA | 1.03 ± 0.039
GGAGACGATA | 1.04 ± 0.0032
